{"source": "paper PMC4678811", "about": "“Assembly and dynamics of the U4/U6 di-snRNP by single-molecule FRET” (Nucleic Acids Research, 2015)", "experiment_in_all_cases": "EMSA", "key": {"[1]": {"tested_on": "Prp3/4 (Prp3-Prp4 complex);Snu13;Prp31;Sm protein complex (SmB, D1, D2, D3, E, F, G);LSm2-LSm8 complex (Saccharomyces cerevisiae;Saccharomyces cerevisiae;Saccharomyces cerevisiae;Saccharomyces cerevisiae;Saccharomyces cerevisiae)", "conditions": "EMSA: 2 nM RNA, 10 mM K-HEPES pH 7.5, 100 mM KCl, 0.01% NP-40, 20 ug E. coli tRNA in 100 ul, on ice 60 min, 4% native gel 0.5X TBE 4 C; smFRET: 10 mM Tris-HCl …"}, "[2]": {"tested_on": "LSm2-LSm8 complex;Snu13;Prp31 (Saccharomyces cerevisiae;Saccharomyces cerevisiae;Saccharomyces cerevisiae)", "conditions": "LSm titrated; Snu13, Prp31 prebound; apparent; Hill 1; EMSA: 2 nM RNA, 10 mM K-HEPES pH 7.5, 100 mM KCl, 0.01% NP-40, 20 ug E. coli tRNA in 100 ul, on ice 60 min, 4% native gel 0.5X TBE 4 C; smFRET: 10 mM Tris-HCl …"}, "[3]": {"tested_on": "Prp3/4 (Prp3-Prp4 complex);Snu13;Prp31;Sm protein complex (SmB, D1, D2, D3, E, F, G) (Saccharomyces cerevisiae;Saccharomyces cerevisiae;Saccharomyces cerevisiae;Saccharomyces cerevisiae)", "conditions": "Prp3/4 titrated; Snu13, Prp31, Sm prebound; apparent; Hill 1; EMSA: 2 nM RNA, 10 mM K-HEPES pH 7.5, 100 mM KCl, 0.01% NP-40, 20 ug E. coli tRNA in 100 ul, on ice 60 min, 4% native gel 0.5X TBE 4 C; smFRET: 10 mM Tris-HCl …"}, "[4]": {"tested_on": "Sm protein complex (SmB, D1, D2, D3, E, F, G);Snu13 (Saccharomyces cerevisiae;Saccharomyces cerevisiae)", "conditions": "Sm titrated; Snu13 prebound; apparent; Hill 2.2; EMSA: 2 nM RNA, 10 mM K-HEPES pH 7.5, 100 mM KCl, 0.01% NP-40, 20 ug E. coli tRNA in 100 ul, on ice 60 min, 4% native gel 0.5X TBE 4 C; smFRET: 10 mM Tris-HCl …"}, "[5]": {"tested_on": "Prp31;Snu13 (Saccharomyces cerevisiae;Saccharomyces cerevisiae)", "conditions": "Prp31 titrated; Snu13 prebound; apparent; Hill 2.9; EMSA: 2 nM RNA, 10 mM K-HEPES pH 7.5, 100 mM KCl, 0.01% NP-40, 20 ug E. coli tRNA in 100 ul, on ice 60 min, 4% native gel 0.5X TBE 4 C; smFRET: 10 mM Tris-HCl …"}, "[6]": {"tested_on": "LSm2-LSm8 complex;Snu13 (Saccharomyces cerevisiae;Saccharomyces cerevisiae)", "conditions": "LSm titrated; Snu13 prebound; apparent; Hill 3.3; EMSA: 2 nM RNA, 10 mM K-HEPES pH 7.5, 100 mM KCl, 0.01% NP-40, 20 ug E. coli tRNA in 100 ul, on ice 60 min, 4% native gel 0.5X TBE 4 C; smFRET: 10 mM Tris-HCl …"}, "[7]": {"tested_on": "Sm protein complex (SmB, D1, D2, D3, E, F, G);Snu13;Prp31 (Saccharomyces cerevisiae;Saccharomyces cerevisiae;Saccharomyces cerevisiae)", "conditions": "Sm titrated; Snu13, Prp31 prebound; apparent; Hill 2.3; EMSA: 2 nM RNA, 10 mM K-HEPES pH 7.5, 100 mM KCl, 0.01% NP-40, 20 ug E. coli tRNA in 100 ul, on ice 60 min, 4% native gel 0.5X TBE 4 C; smFRET: 10 mM Tris-HCl …"}, "[8]": {"tested_on": "LSm2-LSm8 complex;Snu13;Prp31;Sm protein complex (SmB, D1, D2, D3, E, F, G) (Saccharomyces cerevisiae;Saccharomyces cerevisiae;Saccharomyces cerevisiae;Saccharomyces cerevisiae)", "conditions": "LSm titrated; Snu13, Prp31, Sm prebound; apparent; Hill 1; text prints 152; EMSA: 2 nM RNA, 10 mM K-HEPES pH 7.5, 100 mM KCl, 0.01% NP-40, 20 ug E. coli tRNA in 100 ul, on ice 60 min, 4% native gel 0.5X TBE 4 C; smFRET: 10 mM Tris-HCl …"}, "[9]": {"tested_on": "Prp3/4 (Prp3-Prp4 complex);Snu13 (Saccharomyces cerevisiae;Saccharomyces cerevisiae)", "conditions": "Prp3/4 titrated; Snu13 prebound; apparent; Hill 3.4; EMSA: 2 nM RNA, 10 mM K-HEPES pH 7.5, 100 mM KCl, 0.01% NP-40, 20 ug E. coli tRNA in 100 ul, on ice 60 min, 4% native gel 0.5X TBE 4 C; smFRET: 10 mM Tris-HCl …"}, "[10]": {"tested_on": "Prp3/4 (Prp3-Prp4 complex);Snu13;Prp31 (Saccharomyces cerevisiae;Saccharomyces cerevisiae;Saccharomyces cerevisiae)", "conditions": "Prp3/4 titrated; Snu13, Prp31 prebound; apparent; Hill 1.5; EMSA: 2 nM RNA, 10 mM K-HEPES pH 7.5, 100 mM KCl, 0.01% NP-40, 20 ug E. coli tRNA in 100 ul, on ice 60 min, 4% native gel 0.5X TBE 4 C; smFRET: 10 mM Tris-HCl …"}}, "data": [{"substance": "U4/U6 snRNA duplex (full length)", "values": [{"measurement": "Kd", "setting": "[1]", "value": 20, "unit": "nM"}, {"measurement": "Kd", "setting": "[2]", "value": 98, "unit": "nM"}, {"measurement": "Kd", "setting": "[3]", "value": 557, "unit": "nM"}, {"measurement": "Kd", "setting": "[4]", "value": 92, "unit": "nM"}, {"measurement": "Kd", "setting": "[5]", "value": 50, "unit": "nM"}, {"measurement": "Kd", "setting": "[6]", "value": 26, "unit": "nM"}, {"measurement": "Kd", "setting": "[7]", "value": 108, "unit": "nM"}, {"measurement": "Kd", "setting": "[8]", "value": 154, "unit": "nM"}, {"measurement": "Kd", "setting": "[9]", "value": 88, "unit": "nM"}, {"measurement": "Kd", "setting": "[10]", "value": 417, "unit": "nM"}]}]}
